Our source for the binding result and Kd values is publication PMC6528793 (Structure (London, England : 1993), 2017).

B1: AnkB C-terminal ankyrin domain (residues 54-168) (domain or fragment)
chain: HIKRELWGNLMVAARSNNLEEVKKILKKGIDPTQTNSYHLNRTPLLAAIEGKAYQTANYLWRKYTFDPNFKDNYGDSPISLLKKQLANPAFKDKEKKQIRALIRGMQEEKIAQSK

The data set “crystal structure” deals with the molecule itself. Put plainly: crystal structure.
Data set [1] addresses B1. Put plainly: NMR titration.

In the case of B1, the binding result in the data set “crystal structure” is “binds”.

B2: QEEKI pentapeptide derived from the AnkB C-terminus (peptide)
peptide: QEEKI
Turning to B2, the dissociation constant Kd in data set [1] was over 8 mM.

As a reminder, the Kd is the equilibrium constant for the complex coming apart. Low readings indicate tighter binding, high ones weaker binding.
